We go through two substances from US20180346555A1.

Assay [1] concerns the target European Hornbeam (Car b 1 isoform 1A & 1B, MyBiosource, Cat#MBS 1200018) (European Hornbeam) (UniProt P38949). The assay can be described thus: SPR Biacore 4000, mAb captured by anti-human Fc, 25 C. In general terms: In SPR one partner is held on a chip, and binding of the other changes the refractive index at the surface.
The target in assay [2] is Celery (Api g 1, MyBiosource, Cat# MBS 1171376) (Celery) (UniProt P49372). The assay is described as above.
Assay [3] addresses Alder (Aln g 1, MyBiosource, Cat# MBS 1041484) (Alder) (UniProt P38948). The description is as above.
Assay [4] deals with Apple (Mal d 1, MyBiosource, Cat# MBS 1224919) (Apple) (UniProt P43211). Described as above.
Assay [5] deals with European Hornbeam (Car b 1 isoform 2, MyBiosource, Cat# MBS 1043940) (European Hornbeam) (UniProt P38950). The assay is described as above.
Assay [6] has as its target Hazel (Cor A 1, MyBiosource, Cat# MBS5304600) (Hazel) (UniProt Q08407). The description is as above.
For assay [7], the target named is natural Bet v 1 (Indoor Biotechnologies, # NA-BV1-1) (Betula verrucosa (Betula pendula)) (UniProt P15494). The assay can be described thus: dose-response blocking ELISA, captured IgE of donor 23939-MH, at 1 ug/mL antibody. (In general: ELISA stands for enzyme-linked immunosorbent assay.)
Assay [8] has the same target. The assay can be described thus: dose-response blocking ELISA, captured IgE of donor 25340-RR, at 1 ug/mL antibody.
Assay [9] has the same target. Put plainly: blocking ELISA, captured IgE of donor 23939-MH, 1 ug/mL antibody.
Assay [10] shares this target. The assay can be described thus: blocking ELISA, captured IgE of donor 25299-RJ, 1 ug/mL antibody.
Assay [11] shares this target. The assay can be described thus: dose-response blocking ELISA, captured IgE of donor 25609-MS, at 1 ug/mL antibody.
Assay [12] shares this target. Put plainly: blocking ELISA, captured IgE of donor 26532-CC, 1 ug/mL antibody.
For assay [13] the target is unchanged. Put plainly: blocking ELISA, captured IgE of donor 22627-MN, 1 ug/mL antibody.
The target is the same in assay [14]. Put plainly: blocking ELISA, captured IgE of donor 25414-CW, 1 ug/mL antibody.
The target is the same in assay [15]. Put plainly: blocking ELISA, captured IgE of donor 25340-RR, 1 ug/mL antibody.
Assay [16] shares this target. Put plainly: blocking ELISA, captured IgE of donor 25609-MS, 1 ug/mL antibody.
Assay [17] shares this target. The assay can be described thus: blocking ELISA, captured IgE of donor 23035-BL, 1 ug/mL antibody.
The target is the same in assay [18]. The assay can be described thus: blocking ELISA, captured IgE of donor 23658-MD, 1 ug/mL antibody.
Assay [19] has the same target. Put plainly: blocking ELISA, captured IgE of donor 29718-MW, 1 ug/mL antibody.

Chain of Hazel (Cor A 1, MyBiosource, Cat# MBS5304600) (Hazel) (Q08407 2-160 limits assumed): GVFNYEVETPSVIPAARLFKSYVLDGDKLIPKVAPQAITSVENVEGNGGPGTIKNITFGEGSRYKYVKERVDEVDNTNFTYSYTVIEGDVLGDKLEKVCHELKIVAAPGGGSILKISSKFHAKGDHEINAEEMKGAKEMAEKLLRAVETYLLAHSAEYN
Chain of Celery (Api g 1, MyBiosource, Cat# MBS 1171376) (Celery) (P49372 whole entry): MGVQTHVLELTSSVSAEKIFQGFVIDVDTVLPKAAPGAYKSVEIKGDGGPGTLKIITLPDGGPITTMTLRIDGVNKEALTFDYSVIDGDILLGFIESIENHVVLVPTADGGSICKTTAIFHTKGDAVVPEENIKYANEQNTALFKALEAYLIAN
Chain of Apple (Mal d 1, MyBiosource, Cat# MBS 1224919) (Apple) (P43211 2-159 limits assumed): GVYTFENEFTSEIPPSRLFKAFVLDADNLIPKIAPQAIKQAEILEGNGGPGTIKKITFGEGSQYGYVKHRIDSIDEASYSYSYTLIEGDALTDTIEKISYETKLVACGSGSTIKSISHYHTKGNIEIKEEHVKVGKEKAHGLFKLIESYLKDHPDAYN
Chain of Alder (Aln g 1, MyBiosource, Cat# MBS 1041484) (Alder) (P38948 2-160 limits assumed): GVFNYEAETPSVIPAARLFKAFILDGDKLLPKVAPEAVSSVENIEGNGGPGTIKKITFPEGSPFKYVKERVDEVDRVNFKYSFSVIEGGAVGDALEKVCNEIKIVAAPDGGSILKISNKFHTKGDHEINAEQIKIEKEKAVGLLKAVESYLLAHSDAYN
Chain of European Hornbeam (Car b 1 isoform 2, MyBiosource, Cat# MBS 1043940) (European Hornbeam) (P38950 2-160 limits assumed): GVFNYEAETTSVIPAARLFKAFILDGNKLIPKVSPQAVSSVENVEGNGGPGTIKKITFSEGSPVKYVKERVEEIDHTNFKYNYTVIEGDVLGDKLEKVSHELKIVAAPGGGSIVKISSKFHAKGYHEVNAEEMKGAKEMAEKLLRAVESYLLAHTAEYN
Chain of European Hornbeam (Car b 1 isoform 1A & 1B, MyBiosource, Cat#MBS 1200018) (European Hornbeam) (P38949 2-160): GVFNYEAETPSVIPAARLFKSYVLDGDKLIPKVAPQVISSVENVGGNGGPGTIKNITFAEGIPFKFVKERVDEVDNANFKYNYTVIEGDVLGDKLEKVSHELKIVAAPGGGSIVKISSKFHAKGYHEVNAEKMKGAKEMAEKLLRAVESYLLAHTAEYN

As for Isotype Control (antibody), the 100 nM Analyte Bound (RU) in assay [1] is 0 RU; in assay [2], -1 RU; in assay [3], 0 RU; in assay [4] it was 0 RU; in assay [5], 0 RU; in assay [6], 1 RU.
Consider Isotype control (antibody), for which the Percent Blocking was 16.8% in assay [7]; 10.6% in assay [8]; -2% in assay [9]; -4% in assay [10]; 8.8% in assay [11]; -4% in assay [12]. In addition, the Percent Blocking in [13] is -3%; in assay [14], -4%; in assay [15], -1%; in assay [16], -2%; in [17] it was -5%; in [18], -3%. Moreover, the Percent Blocking in assay [19] is -2%.
